This data set in a line: protease stability score; higher = more stable; yeast display proteolysis, trypsin and chymotrypsin.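 Note: relative to predicted unfolded state with 0 unfolded-like and 1 meaning tenfold more protease.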
For the sequence “DEEKKEIQKAVDLMRHLLVTGDENTLHHLLDPNVRLIVGDKFFHGREELIRVWSEEIESMGFDHVEMHVRHVRVIGDKADVQMEIRFDVNGREHSREFRVRLRKIDGQWVIKSIEIR”, the protease stability score turned out to be 2.15.

The sequence “DEDKESAKTLVELLVEVLSTGDWKELLHLMDPNTRININGREVHGWHSMHELLRRMIEELRIKRLHLTEVRAQGDKVHVSSKMRVNIDGQDRLTQTHIDVHVFDGVIKTWTMHIE” registered a protease stability score of 1.01.

The sequence “DHHEETIRHFAKLWVELWLTGDEKSLQTLADPHVRVHINGVDLHGRDAIHHFLRRIEERYKGLRIDVEEQRIVNGRTEMITEIHIGDKVWRTRLHVVVVDGRIHELSFKDE” gave a protease stability score of 2.25.

Sequence “DEEERELKHFLKEFNRAWRTGDEDEIRHLLDPHVRILFNGVHVIGMEEIEKFWRHLRVRVTRITVHRVDLQGDKLRVDTEQDLVFLIGDFENKHTHHTVIFILKINGRWIIESIVIV” showed a protease stability score of 1.45.

“NEEEHTFEIAIRILREMWETGDEKLSQELADPNARLDIGDKHFHGRESLRHRVHEMRIEHTDIHSYHTINGRVHMDWRVDGFINGQRHDTRMHLDVIKIDGRWIIKNVEVK” gave a protease stability score of 0.571.

“DEEEEQAHTMLEIFLHNLVTGNEETINTLMDPHARTDIDGKIFHGRDWLEHFLRRFPHVRLHLKHIEWRVINGVAHLHLEMHVNVDGRHFDVRFHIHNEKINGRWFSHSFKYSIE” displayed a protease stability score of 1.44.

Regarding “DEEEKKFHELYKHLVKSLITGDEHELYRLADPNMRFSVGEFHYHGRENVLERLKEFIDRFRHATIRTKHMDRQGEYIHLTLKIHQGDKTHDMEIIAWKFDGRWFLHMIYIE”, the protease stability score amounted to 0.959.

Sequence “SEDEHNAEIAIKIWLDTIRTGDWHKIENMADPNTRIDIGDKHFHGREEIVRLYIELVEKFPGMTFHVREVDVVGDKVDIHSHVVVGDKTFNLTIIITKVNGRWLLKKVRMESH” returned a protease stability score of 2.67.

Sequence “DEEEKDVQKILKIMIESMKTGDEHTIERLVDPHVRLIINGKRLHGWELFVKIVHHEAEHARVDEIRIDHMHVIDGRAHLYLTIKRTVGDKHIKLDLEFIWSKFDGRWHVEEERRE” yielded a protease stability score of 1.14.

As to “DEDEESNKLFEDLLSEAIRTGDWRMLRHLADPNVRVDINGKKLVGWEELMRFMHELRIDRHHSRIHDSDSQGDKMHIDVRLEIDGNINGRKHRFRIESELILVKVNGRWLLEESRVG”, the protease stability score amounted to 1.67.

Consider “SEHHKLLEDFLHLMQEALHTGNEDFIAELADPNVRINWNGKETHGRENLRRMLHEWRERWGIDRIEFHMKSISVQGDKIDLEMQVHINGRHETMHVRITVINGRLKDVRYELR”, for which the protease stability score is 1.66.

In the case of “DEDERNVRDVAYLLLHALWTGDEDMLRHLIDPDVRFHIDGRHHHGWLRVLEMFREIRIHDFRMHDEKFRIIGDKAEARFDGESIVVIDGKEVDRRVEERYIIVKVNGQWRLKMIEVHLR”, the protease stability score was 1.55.

Consider “DEDKKLHHEALEVWERVLKTGNFRIESEYLDPHARNEFEGRHFHGRELFHELNEELGVENVRFHHFHVHDLETFNGRILMRFHMEGEINGQQFNVEVKVDTEKYDGVWFTRSFVER”, for which the protease stability score is 0.38.

In turn, “DEDKEALHEILRLIAEAWNTGDEHTLRRLFDPDVRVEVGDKEFHGREEVDRWFRHLRIEHVETRLHDTRSQGDKLLSDTRLHFVGEVNGVHFNRSTETDLFVHKVDGRWRIESIRVR” had a protease stability score of 1.03.

“DEDTHLAKVVLEIFLHLMRTGDFKETWEYADPHVRIDIGDKHLHGREELARLMEELGIDHFEIRDVHLQGDKLHIRTDVDFNGVRTHVVFIILKVDGRWVLTHVRIE” showed a protease stability score of 1.46.

With “DEDEEKAKEAWEDIVRDIETGNEESMEKMLDPNTRLVVGEKERHGWESASKFVRELRHRVDHVELRLKDSKLYNGRVELDGLLIENFNGVEVRHKMIVFILKINGRWHIESVIIH”, the protease stability score was 1.44.

As to “SEEEEEVLRFLKEWIHRLRTGDEDILRELLDPDVRIEAENRESHGREEATRLLSEIRFEHFFIESIKVQGNKVSIHGRVHGVINGKKFKHHIHIILVKVNGKWQFREIDIH”, the protease stability score was -0.107.

As for “DEEEELNRRLVELMIRWHETGDFDMIEKYMDPDAKLNINGQEIHGMEKITNLFLWRFEFFKGAQYRMNRVRVQGDKASIDGRLNVDGRTHSIEIRIVIINGRNHSIEIHDR”, the protease stability score worked out at 1.41.

In turn, “DDEEEESEHAVKFWKHAQETGDFDEMRRLADPNVKVEIGDKELHGRKDFTRLLREHKEKLGVERIEVFIHDMHPINGRVTVHVIIEYNGQRQWFHVIFLKINGRWFIESMHIT” registered a protease stability score of 0.378.

In turn, “HRDEELSEEILRLILEILRTGDEDELRRLIDPHVRVSIGDKEKHGREWYLELVNVAGIKYIELKRIHVIGDKAHFETYVHVDGRDISLQFIILKINGKWFITSIRIETR” showed a protease stability score of 1.4.

“LEDEEMLEEVDKRLVHAFLTGDFNTIERMLDPDTKVRINGRESIGRENVAKVLHEERRHMRLDIIEIRRIRLVGEFIHSDTRLDININGRRIKFTFRIIVLKINGQWIVESLEID” returned a protease stability score of 2.06.

In turn, “DEHEEMVRIFIKLFIHNSHTGNEEELTRMADPHTKVDVNGKEYIGREEWRRFFMELGVDHVEVRRVHVQGEKAEVDLELNIDGRVIRFHIYTLKINGKWIIKSLEVR” showed a protease stability score of 1.78.

“SEIETILEKVLRELEHRKETGDEESFERYADPNVRMSVDGKDIHGREEVLRSWLETWKLMGVDHSHLHVTDLRIIGNKLEIDGIVRFNVGDKIVHRHSRLIMLKINGRWMIKQVEIH” returned a protease stability score of 1.22.

Sequence “SEEDKEFEDLIKFWIHLLETGDFDTLRDLADPHVRVTIDGRDLHGREILLTFWEKVKNIKLDLKSIRVINGVVIMHGDTNFDGKRSHVELHIKKINGRWYITEFRIE” displayed a protease stability score of 2.25.

Turning to “DHRESLRDDMEELLLEVIHTGDWHNYLKLLDPNARLVVGDKEYMGRERVLHWFKEKLDKIPGAKIELEDKREIGNKVELDFDMHVGDKSLRLHIDLRKVNGRWLIEHIEIR”, the protease stability score turned out to be 1.47.

The sequence “DEDEEEMHHRIEEHFEYLRTGDWKLIRNLVDPSVRVDVDGKEHHGWHEFVRYAVHIRVRRYELKHIRIIDGQVDFQGRIDGEIDGKFRSFNIFIIAQKIDGRWIFKEVRMH” had a protease stability score of 1.68.

For the sequence “SEDEHAVRELIELESHAWRTGDEDTLRRLIDPHTRVEQGDFIFHGREEWEKFVKRLLRHMRIEDIFIHHVRVQGDKVDTDSRLLVLFEGRREHVEVDLIILKIDGRWVISQIIIK”, the protease stability score is 1.39.

Take “SEEEEMAHRVLEILLYALRTGDEKWMRKLVDPNVRLHVNGVEFHGRDEYTKFLHEHINRFDHFHSLTVTEIRHQGDFIVLHTILNIQWDGRSTRIDIHIIVLKVNGRWLLHSSSIE”: the protease stability score was found to be 1.25.

For the sequence “TELEESAKRAVKHVVDLILTGDWELFEEMFDPHTRILVGDKHMHGREMASEHLRFWYEHLGVKHIEIRRIDVQGDKVVSDVETDIDGRHIRVNLVIHKVDGKWIIHSIHLD”, the protease stability score was determined as 1.59.

Consider “SEREEENRRAFHKFWEIIKTGDEELQDTFADPHVRLDVDGKEFHGREWIVRMLTELLRRFGVDHITFKHVEVQGDKLIIHHRDEVGDKKFELHVIVDKINGRWYERHVSMSER”, for which the protease stability score worked out at 1.65.

On to “DEHDQHLKEWLDILLEVISTGDESRLQEMLDPNARLDVNGRKIHGRDEVLRAFHDHLDRFDHLHDLRIEHSNTVDGKAYIEGRDDGVVDGKRVFLRTRYFIITVNGKVHEVKIEID”, for which the protease stability score worked out at 1.92.

With “DKDEKETKDAIHILLHVARTGDERLLNTLFDPDVKLEVGDKSHHGRETITKVWKDWFHEWRIRDVTYHHVESQGDKIHVDLRIDGIFDGQRTHIESHNVLLKVNGQWLLRREVVH”, the protease stability score was 0.512.

Sequence “SEEEEATKEMSRLVLENLKTGDFDAFHRLFDPNAKLDVGDKHFHGREQIHEWYLHVREELGVDVSRVHEKHIQVIGNKVILHGELHLRIGDKRDDTTMWIVSKKFDGRWILSSMRIS” gave a protease stability score of 1.32.

For the sequence “DEDFDIVKHIFDVYIDAILTGDFRTLERNIDPDAKLHFNGREYHGWEIVVKFMLEIRVHDVQYKTMHIYDGRVELHGRNDGVIDGQKTETDTKIIMVKIDGRWHVRHIRVG”, the protease stability score was found to be 1.33.

The sequence “DEEEETARRLTEELIRSQKTGDWEFLLRLMDPHAKSDINGVHVVGMEETVRILEKLLRDLGVTKVEALLHRVHFIDGRVHVDSEERYGDKWFRVHFTVQKINGKWVIRSIEVR” gave a protease stability score of 1.4.

“SEEERDARIAIEIMLRLLHTGDEESMHQLADPDVRSDVGDKELHGWKLFVDVITEMGIDHVELEHLHTQGDKVHIHVRSFFNGREYLVNLHVRKVDGKWYVEEMKISHH”: the protease stability score amounted to 2.45.

“SEEERQSREFFKKWIHYMLTGDEHQIHTLADPNVRVVINGKEHHGRERLYELVLEFHHRLQNATSRVHTQDSVVIDGRLELHMELRVHQGDKEDTFQIRQLVVKIDGVWHSKSFEVE” had a protease stability score of 1.61.

As to “DEDHQMATIAFHLLIESLLTGDEHTIQEMFDPRVKVNINGVELIGWEALVEHLRRIDHHSIHQWTFRDVRFYDGVLNVLGEVDFEVVFDGRRVSHRVRFHLIIFKIDGKWMTRTVEVK”, the protease stability score was determined as 2.23.

“SEMEETAKTVYKRWFDMLHTGDEELLTRFMDPHVRVQQGDKEIVGWELVVTHNRHLRYEDSHLKDIETQGDKVIIRGELVLTIGDKRFTIDVEILAQKVDGRWILKSVRFS” gave a protease stability score of 0.035.

Turning to “DEEEKIVEDAIRVWRRVLMTGDEEASRDLMDPNYKLVVGDKEYHGREEIVTYFKILVEHIRIDDFDVRHIRVQGDKIDINSEINGTIDGRHKRLEVTIHAHKFDGRWHLTEIIIH”, the protease stability score amounted to 0.811.

In turn, “DKTTEEAERDAREVTRLHRTGDEEYLEKYFDPHVKLEFNGRDVHGMELASEILKKVRRDLGVDHIEVKHVELDVQGEWIHVHLNLRVFFDGRETRYEYNVHVRKIDGKWIIKHVIVRVS” displayed a protease stability score of 1.34.

“DEITHEIEHNLKLLLKAWETGDEHLLTEMIDPHDKIHIGDKTIIGRELRLEIEKRLGAKVVEVEIKRIEVQGDKILMHGTIHIEIGDKRFERESRFVAHKFNGRWHQKSLDII” showed a protease stability score of 1.21.

As to “DEWTEDVREALHLIKHSIETGDPRLIEELADPNVRVLYGNKVYHGREKLSDLVTEWRTTHVDFHHVRVIGDKIDIDVIIRSEYNGRVVDLKEKIVATKINGKWILHSRNIH”, the protease stability score worked out at 0.531.

Turning to “DESKRDVKMFHEIFLRAQSTGDEDELSHLADPNVRIHQGEFHNIGMEEFVKHIREMRVHVRDSHIERVEIQGDKLIVEVRLHMEIRYNGQRTERDVNLHLIIIKINGRWILHSIHIE”, the protease stability score was determined as 1.02.

In turn, “REEDEIAENLFRLWIKSFLTGDFNTLRKLMDPHVRIHINGQEIHGREDFVRLLWEEFRRLGAKFHIEIKHLDVQGDKVFSEGTLRIEQGNKKDSKSVLIELIVVDGVITEIRMDVR” displayed a protease stability score of 2.25.

The sequence “DEDEEYAREMYRLSVEALSTGDEDTLRHLFDPDVKVSWNGKENIGMEQSLKHWHHLRIEFRRIKIEQVHIQGNKVRLNLRVDGYIRVDGKEDRVHMKSHSVYVKINGKWTMHSIEFE” displayed a protease stability score of 1.79.

Turning to “DDQEEFLQRLVEELLRIIETGDWRRFWELLDPNMRVDVDGREIHGMEILVTIIRELWRKLGIDHVHIRLDHVEAFNGQAHAETTVDLRYDGQIIIRESRNHFIIIDGKVEDEKYELR”, the protease stability score worked out at 0.279.

For the origin of these results see the NTF2 design screens of Basanta et al. (2020).
